Assay results as given in patent WO2023190852A1.

What follows are substances tested against RBD derived from the Omicron strain (BA.1 strain; B.1.1.529) (SARS-CoV-2).

Substance | binding inhibition rate (%)
ADG2 (antibody) | < 80
AZD1061 (antibody) | < 80
AZD8895 (antibody) | < 80
LY_CoV16 (antibody) | < 80
LY_CoV555 (antibody) | < 80
REGN10933 (antibody) | < 80
REGN10987 (antibody) | < 80
S309 (antibody) | < 80
